Assay: soluble on expression in E. coli; label from the status in PepcDB or PDB records

| Sequence | soluble on expression in E. coli |
| --- | --- |
| FMAKLTSAVPVLTARDVAGAVEFWTDRLGFSRDFVEDDFAGVVRDDVTLFISAVQDQVVPDNTLAWVWVRGLDELYAEWSEVVSTNFRDASGPAMTEIGEQPWGREFALRDPAGNCVHFVAEEQD | soluble |
| FPDILDNRIEKMSSCFKQAAEEYGYKAENFIIYPIKVNQMRPVVEEIISHGKKFNLGLEAGSKPELHAVIAVNTDSDSLIVCNGYKDESYIELALLAQKMGKRIFLVVEKMNELKLIAKMAKQLNVQPNIGIRIKLASSGSGKWEESGGDASKFGLTSSELLEALDFMESKGLKDCLKLIHFHIGSQVTKIRRIKTALREASQFYVQLHSMGFNVEFVDIGGGLGVDYDGTRSSNSEGSVNYSIQEYVNDSISTLVDVSDKNGIPHPNIITESGRALTAH | soluble |
| FTQMVIRLHIYHLVSTVSPHNVNIDASIAARGLSGEGYRGHYFWDEIYIMPFFIQHLPEVARALLMFRYHRLDAAREYARDNGYHGAMYPWQTADDGREETPTIHYNPKSGAWDPDLSCRQRHVSIAVFYNAWRYVHDTGDTEFLNSYGAEMMFEIARFWASIATFSPDDGRYHIEGVMGPDEFHEELPGSGKPGLKDNSYTNIMTAWLLEKAIEISQRLDPAVMDGLMEKIGIGHDEFMKWRDISGKMNVLIDQNGILEQFDGYMGLKELDWEHYKLKYGNIHRMDRILKAENDSPDHYKVAKQADVLMTFYTLSPAEVCAILENLGYHVADPLRFVRDNYAFYEPRTSHGSTLSKVVHSIISSYLPNGHEMAWNWFIEALRSDIHDTQGGTTPEGLHCGVMAGTIDTVT | not soluble |
| GAEKEDLVQEGILGLLKAIKFYDETKSSFSSFAFLCIRREMISAIRKANTQKHMVLNEALKTNAILEDSAYFDDEGHNINNYKSSESNPEEAYLLKEEIEEFKKFSENNFSKFEKEVLTYLIRGYSYREIATILSKNLKSIDNTIQRIRKKSEEWIKEEENIKR | soluble |
| GAGTQTAQTQALDSDGIPTGGEWITMFDGKTLNGWRGYCRQDVPLGWVVEDGSITYKGSDNKADTGFGDLIYDKKFKNFVFEIEWKIDKAGNSGIFYTAQEIEGTPIYYSSPEYQLLDNENMPDAWEGCDGNRQAGAVYDMIMPDPQPVKPYGNWNKTRIVVYNQRVIHYMNDVKILEFQFGTPVWRALVDHSKFSKFSTSPEKCPEAYDLMLQCGKQPGYIGMQDHGYGVCFRNIRIKEL | soluble |
| GAMAPERPLVGVNGLDVTSLRPFDLVIPFTIKKGEITGEVRMPSGKVAQPTITDNKDGTVTVRYAPSEAGLHEMDIRYDNMHIPGSPLQFYVDYVNCGHVTAYGPGLTHGVVNKPATFTVNTKDAGEGGLSLAIEGPSKAEISCTDNQDGTCSVSYLPVLPGDYSILVKYNEQHVPGSPFTARVTGDD | soluble |
| GAMDGNMKEVTQLPEPQTASLAELQQMKLFLKLLKKQEKELKELERKGSKRREELLQKYSVLFLEPVYPRGLDSQVVELKERLEMELIHLGEEYHDGIRRRKEQHATEQTAKITELAREKQIAELKALKESSESNIKDIKKKLEAKRLDRIQVMMRSTSDKAAQERLKKEINNSHIQEVVQTIKLLTEKTARYQQKLEEKQAENLRAIQEKEGQLQQEAVAEYEEKLKTLTVEVQEMVKNYMKEVFPDGPE | soluble |
| GAMDPEFQQSKVAPSSAASRPVLSSRSDQSQKNEVFLDVVERLSVLIASNGSLLKVDVQGEIRLKSFLPSGSEMRIGLTEEFSVGKSELRGYGPGIRVDEVSFHSSVNLDEFESHRILRLQPPQGELTVMRYQLSDDLPSPLPFRLFPSVQWDRGSGRLQVYLKLRCDLLSKSQALNVRLHLPLPRGVVSLSQELSSPEQKAELAEGALRWDLPRVQGGSQLSGLFQMDVPGPPGPPSHGLSTSASPLGLGPASLSFELPRHTCSGLQVRFLRLAFRPSGNANPHKWVRHLSHSDAYVIRI | soluble |
| GAMEGIKVFLHERELWLKFHEVGTEMIITKAGRRMFPSYKVKVTGLNPKTKYILLMDIVPADDHRYKFADNKWSVTGKAEPAMPGRLYVHPDSPATGAHWMRQLVSFQKLKLTNNHLDPFGHIILNSMHKYQPRLHIVKADENNGFGSKNTAFCTHVFPETAFIAVTSYQNHKITQLKIENNPFAKGFRGSDDMELHRMSRMQ | soluble |
| GAMGSGGGGEHQHGEEMMAAVPAPDAEGAAGFDEFPIGEDRDVGPLHVGGVYFQPVEMHPAPGAQPSKEEADCHIEADIHANEAGKDLGYGVGDFVPYLRVVAFLQKHGSEKVQKVMFAPMNAGDGPHYGANVKFEEGLGTYKVRFEIAAPSHDEYSLHIDEQTGVSGRFWSEPLVAEWDDFEWKGPQW | soluble |
| GAMSSIFINREYLLPDYIPDELPHREDQIRKIASILAPLYREEKPNNIFIYGLTGTGKTAVVKFVLSKLHKKFLGKFKHVYINTRQIDTPYRVLADLLESLDVKVPFTGLSIAELYRRLVKAVRDYGSQVVIVLDEIDAFVKKYNDDILYKLSRINSEVNKSKISFIGITNDVKFVDLLDPRVKSSLSEEEIIFPPYNAEELEDILTKRAQMAFKPGVLPDNVIKLCAALAAREHGDARRALDLLRVSGEIAERMKDTKVKEEYVYMAKEEIERDRVRDIILTLPFHSKLVLMAVVSISSEENVVSTTGAVYETYLNICKKLGVEAVTQRRVSDIINELDMVGILTAKVVNRGRYGKTKEIGLAVDKNIIVRSLIESDSRFADLWS | soluble |
| GAVETLQGKAATGELLEKSVNTIRFLAIDAVEKANSGHPGLPMGCAPMGHVLYDEVMRYNPKNPYWFNRDRFVLSAGHGCMLQYALLHLAGYDSVKEEDLKQFRQWGSRTPGHPENFETPGVEVTTGPLGQGIANAVGLALAEKHLAARFNKPDSEIVDHYTYVILGDGCQMEGIANEACSLAGHWGLGKLIAFYDDNHISIDGDTEIAFTEDVSTRFEALGWHTIWVKNGNTGYDDIRAAIKEAKAVTDKPTLIKVTTTIGFGSPNKANSYSVHGSALGAKEVEATRQNLGWPYDTFFVPEDVKSHWSRHTPEGAALEADWNAKFAEYEKKYADDAATLKSIITGELPTGWVDALPKYTPESPGDATRNLSQQCLNALANVVPGLIGGSADLASSNMTLLKMFGDFQKDTAEERNVRFGVREHGMGAICNGIALHSPGFVPYCATFFVFTDYMRGAMRISALSEAGVIYVMTHDSIGLGEDGPTHQPIEHLVSFRAMPNILMLRPADGNETAGAYKVAVLNRKRPSILALSRQKLPHLPGTSIEGVEKGGYTISDNSTGNKPDLIVMGTGSELEIAAKAADELRKEGKTVRVVSFVSWELFDEQSDEYKESVLPAAVTARISIEAGSTLGWQKYVGAQGKAIGIDKFGASAPAGTIYKEYGITVESIIAAAKSF | soluble |
| GEPPTQKPKKIVNAKKDVVNTKMFEELKSRLDTLSQEVALLKEQQALQTVCLKGTKVHMKCFLAFTQTKTFHEASEDCISRGGTLSTPQTGSENDALYEYLRQSVGNEAEIWLGLNDMAAEGTWVDMTGARIAYKNWETEITAQPDGGKTENCAVLSGAANGKWFDKRCRDQLPYICQFGIV | soluble |
| GETLDGEAALQAAIARLAAGDIVAIKGIGGFHLACDAGNPAAVATLRARKHRPAKPLAVMLPTATGLPAAAAALMGSPAAPIVLIAKAQVSGLCDEIAPGLAEVGVMLPSNPLQHLLLQGLARPIVMTSGNLSGRPPALSNAQALNELADIADGFLLHNRDIVQRMDDSLVRSSGEMLRRARGYVPDALPL | not soluble |
| GFIELHAHLAFQKVPADIVLRHGVTTLRDVGGPVHPPYGGEGSLRVLTSGRIITAPHGYPIVTMGARDLAIPVASEAEAREAVRHLVGEGAVIIKIALEPGSEAGAPWSSHHDHAHHDAAHTASAVTHHHAHAASHDQSAWPMLPEPIVKAVVDEAHRHQRKVSAHVAEPSGVQVALNAGVDEWAHMPCNPIPEPLLKQARAQNVTIIGTLDTLSKCSGIAHNTMVWTELGGELLYGTEIAHPDIPWGIDAQELMYLMHLGKMKLLDALGAATAKAGRYLGIPMLGTIQPGAPADLIAIRGNPEQQLKRLEYPDLVISGGHIVVNHFSSLP | not soluble |
| GFVNVTGMFRDRARTNRADGNQLILFDQSDFPNGVAPPSGFPFAYPQVAGIIGEEAAQNARRIDNQILNQRGLERSDFQFRVGQSAVQQRAVFLNSEVGLGNDATLYAFGGLSYKNGIGAPFRRLPFSTSAMPYRASNTDPALFPNGFQPEMNSDVVDQSLTIGVEGTIGGWTWDLSNSYGRNSLDYQMDNTVNASLLQASPTSIYAGGHAFSQNVTNLDVSRFFDDALAGINVAFGGAYRTDRYQIFSGEEASYRNYGRVQLIDDTSAASPRLVTRDTLGKEPGTQGFVGFRPENEVDRTRSNVAAYLDTEVNLTENLLVTAAGRYENYSDFGGTLNGRLAARWGLLDGRLNLRGSASTGFRAPSLHQIYFNEVRT | not soluble |
| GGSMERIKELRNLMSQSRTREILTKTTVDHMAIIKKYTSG | soluble |
| GHMYAIAEDTLPARVLKELLLYRRRYPEHRQSASEADEIRRIEQVQLPRIAAFIEAGEPIEFVLPAFPAKSPNPGKVLDSRPDMAERLSLSFLNHLCQRIQLFYAPGAKITVCSDGRVFGDLVRIGDAHISAYQDALRLMIEEIGATHIGVFNLEDVRAFEAQRDNHEQLRQLLIGGYAEPLESIRETLLASEEGLLLYRAITRFLYEDGLTPDYQGSKTALQRDAKERAYGVIQRSWAWGALLADQFPRAIRLSIHPQPADSLKFGIHMMPTRDDWLTPWHGVAVNTEDRFVLMKRSEVLELGGELVQINGQPSHYRLPARAARRAAVA | soluble |
| GHMYEVDHADVYDLFYLGRGKDYAAEASDIADLVRSRTPEASSLLDVACGTGTHLEHFTKEFGDTAGLELSEDMLTHARKRLPDATLHQGDMRDFRLGRKFSAVVSMFSSVGYLKTTEELGAAVASFAEHLEPGGVVVVEPWWFPETFADGWVSADVVRRDGRTVARVSHSVREGNATRMEVHFTVADPGKGVRHFSDVHLITLFHQAEYEAAFTAAGLRVEYLEGGPSGRGLFVGVPA | soluble |
| GIKDSPVNKVEPNDTLEKVFVSVTKYPDEKRLKGLSKQLDWSVRKIQCWFRHRRNQDKP | soluble |
| GILELAGTVGCVGPRTPIAYMKYGCFCGLGGHGQPRDAIDWCCHGHDCCYTRAEEAGCSPKTERYSWQCVNQSVLCGPAENKCQELLCKCDQEIANCLAQTEYNLKYLFYPQFLCEPDSPKCD | soluble |
| GKIILFEDVEFGGKKLELETSVSDLNVHGFNDIVSSIIVESGTWFVFDDEGFSGPSYKLTPGKYPNPGSWGGNDDELSSVKQQ | soluble |
| GKRLYNVKQSALSIRQIDLQRRHIEQSIRMGIKNQNDRLRTCMQRFVASEEAVRSAEKGYQIAEKRYQTGEGTLVELNDADVALLQARLNYNQAIFDFMTAKAELDKMNGMGIPEQ | not soluble |
| GLGRKPHTRILSFEKLEADKFICQHLNLSLGEAVFKLSRLRIADNEPLMVEDTYLPVKFFLSLTDQLLRSKPLYDLFSEDFKQTVRLADEELYASIASKEDAKLLMIPEGAPVLHLARQTYNMKNEIIEFTLSVARADQFHYQIRHIRNS | soluble |
| GLNPPSAFSGAALACLEKMQASGVEEKCIHIFLIQHALVRKGETGYIPEKSISPVESLPFLQGIETKGENTALLRQAVVLKLNGGLGTGMGLNGPKSLLQVKNGQTFLDFTALQLEHFRQVRNCNVPFMLMNSFSTSGETKNFLRKYPTLYEVFDSDIELMQNRVPKIRQDNFFPVTYEADPTCEWVPPGHGDVYTVLYSSGKLDYLLGKGYRYMFISNGDNLGATLDVRLLDYMHEKQLGFLMEVCRRTESDKKGGHLAYKDVIDETTGQTRRRFVLRESAQCPKEDEDSFQNIAKHCFFNTNNIWINLMELKKMMDEQLGVLRLPVMRNPKTVNPQDSQSTKVYQLEVAMGAAISLFDRSEAVVVPRERFAPVKTCSDLLALRSDAYQVTEDQRLVLCEERNGKPPAIDLDGEHYKMIDGFEKLVKGGVPSLRQCTSLTVRGLVEFGADVSVRGNVVIKNLKEEPLIIGSGRVLDNEVVVVE | soluble |

— the DeepSol protein solubility set
